The values below come from patent US20200102387A1 (CELGENE, published 2020).

The target of experiment [1] is T1, human SIRPα on cells (human, UniProt P78324 31-504).
T1 construct: whole, on cells; also called human SIRPα-CHO; Hu SIRPα-CHO-K1
In words: flow cytometry, human SIRPα-CHO cells, anti-human IgG-AF647 detection. (In flow cytometry, cells or beads pass a laser one at a time.)

For experiment [2], the target named is T1, human SIRPα on cells. In words: cell-based or functional assay.
Experiment [3] addresses T2, cynomolgus SIRPα on cells (cynomolgus, UniProt P78324 31-373 (human entry)).
T2 construct: also called cyno SIRPα-CHO; Cyno SIRPα-CHO-K1; not shown: Transmembrane and cytoplasmic region of cynomolgus SIRPα
T2 chain: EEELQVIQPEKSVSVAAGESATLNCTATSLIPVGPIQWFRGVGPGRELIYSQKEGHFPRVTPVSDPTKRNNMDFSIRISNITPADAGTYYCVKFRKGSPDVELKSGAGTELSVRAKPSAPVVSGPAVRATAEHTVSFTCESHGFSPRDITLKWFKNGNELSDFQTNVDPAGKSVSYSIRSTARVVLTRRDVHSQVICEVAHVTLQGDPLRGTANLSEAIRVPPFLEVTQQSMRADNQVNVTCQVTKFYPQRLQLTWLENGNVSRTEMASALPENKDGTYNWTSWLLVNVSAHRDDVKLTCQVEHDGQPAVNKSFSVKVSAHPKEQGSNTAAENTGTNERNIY
In words: flow cytometry, cyno SIRPα-CHO cells, anti-human IgG-AF647 detection.

Another experiment addresses T3, FcγR1 (CD64) (human, UniProt P12314 16-374).
T3 construct: whole, on cells
In words: cell binding, FcγR-engineered HEK293 cells.

A further experiment deals with T4, FcγR2A (CD32aH131) (human, UniProt P12318 34-317).
T4 construct: whole, on cells
T4 sequence (looked up): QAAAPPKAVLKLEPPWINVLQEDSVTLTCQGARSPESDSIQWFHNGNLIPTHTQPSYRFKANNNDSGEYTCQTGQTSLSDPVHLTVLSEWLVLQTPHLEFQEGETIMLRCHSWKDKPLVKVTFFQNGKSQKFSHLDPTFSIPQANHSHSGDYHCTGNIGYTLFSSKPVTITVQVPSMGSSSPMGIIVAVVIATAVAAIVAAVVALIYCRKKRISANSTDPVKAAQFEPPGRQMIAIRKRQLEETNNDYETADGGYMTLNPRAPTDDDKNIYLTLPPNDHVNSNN
In words: cell binding, FcγR-engineered HEK293 cells.

A further experiment has as its target T5, FcγR2A (CD32aR131) (human, UniProt P12318 34-317).
T5 construct: whole, on cells
T5 sequence (looked up): T4 sequence (looked up) with H134R
In words: cell binding, FcγR-engineered HEK293 cells.

Another experiment deals with T6, FcγR2B (human, UniProt P31994 43-310).
T6 construct: whole, on cells
T6 sequence (looked up): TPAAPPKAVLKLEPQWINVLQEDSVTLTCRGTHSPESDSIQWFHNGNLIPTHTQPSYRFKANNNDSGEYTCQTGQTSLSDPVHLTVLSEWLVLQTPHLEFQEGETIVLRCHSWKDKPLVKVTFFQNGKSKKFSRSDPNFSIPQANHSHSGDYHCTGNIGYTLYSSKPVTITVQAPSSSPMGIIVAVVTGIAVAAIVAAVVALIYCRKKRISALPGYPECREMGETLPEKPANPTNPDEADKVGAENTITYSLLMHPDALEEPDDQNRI
In words: cell binding, FcγR-engineered HEK293 cells.

The target in a further experiment is T7, FcγR3A (CD16aF158) (human, UniProt P08637 17-254).
T7 construct: whole, on cells
In words: cell binding, FcγR-engineered HEK293 cells.

Experiment [4] has as its target T8, extracellular domain of SIRPα v1-DLN (e.g. SIRPα1) (human, UniProt P78324 31-373).
T8 construct: also called hSIRPα - ECD (v1)
In words: SPR Biacore T200, antibody on Protein A chip, 1:1 Langmuir fit; comparative Biacore study of Table 30, a separate experiment from Table 15. Background: SPR reads the build-up and loss of mass on a sensor chip optically.

The target of experiment [5] is T9, SIRPβ extracellular domain (human, UniProt O00241 30-371).
T9 construct: also called hSIRPβ - ECD
T9 chain: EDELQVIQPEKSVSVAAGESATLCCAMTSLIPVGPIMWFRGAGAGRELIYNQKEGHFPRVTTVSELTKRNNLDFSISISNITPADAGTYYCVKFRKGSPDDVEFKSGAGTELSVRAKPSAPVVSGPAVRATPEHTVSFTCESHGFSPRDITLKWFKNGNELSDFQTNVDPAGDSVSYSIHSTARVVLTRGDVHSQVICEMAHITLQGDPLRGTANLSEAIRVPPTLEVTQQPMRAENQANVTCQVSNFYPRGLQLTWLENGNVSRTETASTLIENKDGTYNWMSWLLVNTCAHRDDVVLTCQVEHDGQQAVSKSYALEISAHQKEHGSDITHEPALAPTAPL
In words: SPR Biacore T200, antibody captured on Protein A chip.

The target in experiment [6] is T8, extracellular domain of SIRPα v1-DLN …. Described as above.
Experiment [7] has as its target T10, SIRPγ extracellular domain (human, UniProt Q9P1W8 29-360).
T10 construct: also called hSIRPγ - ECD
The description is as above.

Residue numbers refer to the chain shown, from its start. Names may count otherwise.

T10 sequence (Q9P1W8 29-360 limits assumed): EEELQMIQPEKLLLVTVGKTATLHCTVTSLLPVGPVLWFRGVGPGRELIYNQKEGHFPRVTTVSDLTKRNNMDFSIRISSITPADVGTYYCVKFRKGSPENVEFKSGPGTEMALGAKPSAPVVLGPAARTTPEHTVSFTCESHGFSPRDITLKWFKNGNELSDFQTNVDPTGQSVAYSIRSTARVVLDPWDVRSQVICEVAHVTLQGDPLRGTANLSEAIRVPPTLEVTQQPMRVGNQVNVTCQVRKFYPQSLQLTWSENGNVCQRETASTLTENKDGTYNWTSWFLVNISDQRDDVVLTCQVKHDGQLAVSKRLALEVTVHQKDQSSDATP
T7 sequence (P08637 17-254): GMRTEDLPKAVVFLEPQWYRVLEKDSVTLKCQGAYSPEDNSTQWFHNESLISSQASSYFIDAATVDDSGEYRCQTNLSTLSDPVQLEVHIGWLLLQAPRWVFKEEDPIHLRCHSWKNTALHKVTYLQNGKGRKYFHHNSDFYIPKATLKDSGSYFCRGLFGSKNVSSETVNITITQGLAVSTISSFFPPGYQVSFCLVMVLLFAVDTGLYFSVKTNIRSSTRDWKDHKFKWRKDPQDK
T3 sequence (P12314 16-374): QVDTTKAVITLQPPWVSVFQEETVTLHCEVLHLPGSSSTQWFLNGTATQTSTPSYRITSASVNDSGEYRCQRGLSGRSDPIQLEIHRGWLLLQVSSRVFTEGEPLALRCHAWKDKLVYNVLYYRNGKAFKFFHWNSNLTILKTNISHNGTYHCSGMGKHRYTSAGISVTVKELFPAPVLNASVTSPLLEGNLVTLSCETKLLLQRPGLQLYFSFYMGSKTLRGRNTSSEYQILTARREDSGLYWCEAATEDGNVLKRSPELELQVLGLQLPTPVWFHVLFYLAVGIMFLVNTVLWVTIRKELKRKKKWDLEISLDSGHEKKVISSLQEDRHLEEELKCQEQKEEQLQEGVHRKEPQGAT

B1: SIRPAB-11-K322A (antibody, human IgG1, kappa)
light: DIQMTQSPSSVSASVGDRVTITCRASQGISSWLAWYQQKPGKAPKLLIYAASNLQSGVPSRFSGSGSGTDFTLTISSLQPEDFATYYCQQGASFPITFGGGTKVEIKRTVAAPSVFIFPPSDEQLKSGTASVVCLLNNFYPREAKVQWKVDNALQSGNSQESVTEQDSKDSTYSLSSTLTLSKADYEKHKVYACEVTHQGLSSPVTKSFNRGEC
heavy: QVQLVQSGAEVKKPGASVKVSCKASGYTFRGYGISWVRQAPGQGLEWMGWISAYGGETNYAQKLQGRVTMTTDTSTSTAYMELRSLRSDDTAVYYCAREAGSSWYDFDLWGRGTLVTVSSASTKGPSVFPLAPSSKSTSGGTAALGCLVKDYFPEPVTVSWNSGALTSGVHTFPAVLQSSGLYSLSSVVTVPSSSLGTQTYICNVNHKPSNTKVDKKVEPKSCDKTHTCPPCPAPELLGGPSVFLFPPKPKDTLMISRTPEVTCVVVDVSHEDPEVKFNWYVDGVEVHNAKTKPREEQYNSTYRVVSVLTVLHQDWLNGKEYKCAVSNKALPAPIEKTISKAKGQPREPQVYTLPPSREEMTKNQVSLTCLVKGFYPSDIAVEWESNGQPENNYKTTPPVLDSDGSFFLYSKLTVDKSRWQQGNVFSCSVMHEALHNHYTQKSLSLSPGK
notes: human IgG1 with K322A (EU numbering); also called SIRPAB-11-IgG1-K322A; SIRPAB-11-K322A-AlexaFluor647
The term EC50 denotes the concentration that produces a half-maximal response. A high value points to a less potent agent. Usually Kd stands for the equilibrium constant for the complex coming apart. Lower therefore signals tighter binding. A word on the koff: it is the first-order rate constant of dissociation. Broadly, the kon is the rate constant with which the complex forms. The low end stands for slow association, the high end for fast association. In the case of B1, the EC50 with human SIRPα on cells [1] came out at 2.06 nM; in [3], 1.9 nM; with FcγR1 (CD64) it was 0.79 nM; with FcγR2A (CD32aH131), 200 nM; with FcγR2A (CD32aR131), 194 nM; with FcγR2B, 2480 nM. In the experiment with FcγR3A (CD16aF158), this molecule came in with a 50% effective concentration (EC50) of 1200 nM. Besides, the “mean EC50 (n=2 donors) of percent phagocytic macrophages; OCI-LY3; with 0.1 nM rituximab” value with human SIRPα on cells [2] stood at 0.11 nM. Further, the Kd in experiment [4] amounted to 0.0923 nM; in experiment [5] it was 12.1 nM; in experiment [6], 0.0152 nM; in [7], 0.0101 nM. The koff in experiment [5] worked out at 0.000614 s⁻¹; in [6], 0.000118 s⁻¹; in experiment [7], 0.000188 s⁻¹. For the same molecule, the kon in experiment [5] was found to be 50600 M⁻¹ s⁻¹; in experiment [6], 7.75e+06 M⁻¹ s⁻¹; in experiment [7], 1.71e+07 M⁻¹ s⁻¹.
